We go through one substance from PMC6002859.

In the assay the target is Plk1 (UniProt P53350). As to the kind of experiment: Myc-PP6R2 IP, Plk1 Western blot. Particulars: reference: wild type; sites S771. (In western blotting, separated proteins are transferred to a membrane and probed.)

In the case of “PP6R2 (SAPS2) (from UniProt O75170) S771A (PBD2 mutant)”, the “binding against the reference” value is “lost”.
